Values quoted from earlier work in publication PMC11759867.
pKd: −log10 of the molar value.

Biological target: MD2 (Homo sapiens) (UniProt Q9Y6Y9)
Sequence of UniProt Q9Y6Y9 (Q9Y6Y9 19-160): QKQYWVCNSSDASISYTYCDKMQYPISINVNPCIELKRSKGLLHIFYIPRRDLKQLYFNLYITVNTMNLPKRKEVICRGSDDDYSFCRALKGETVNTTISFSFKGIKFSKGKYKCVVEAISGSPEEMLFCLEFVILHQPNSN

CIRP 106-125 (from UniProt Q14011)
pKd: 6.52
